Reference: IntAct's records for PubMed 15784897

How the values were obtained:
[1] = target: grb2_human GRB2 (UniProt P62993)
[2] = target: lck_human LCK (UniProt P06239)
[3] = target: hck_human HCK (UniProt P08631)
[4] = target: fyn_human FYN (UniProt P06241)

Measured: effect of a mutation on the interaction

Chain of fyn_human FYN (P06241 whole entry, looked up): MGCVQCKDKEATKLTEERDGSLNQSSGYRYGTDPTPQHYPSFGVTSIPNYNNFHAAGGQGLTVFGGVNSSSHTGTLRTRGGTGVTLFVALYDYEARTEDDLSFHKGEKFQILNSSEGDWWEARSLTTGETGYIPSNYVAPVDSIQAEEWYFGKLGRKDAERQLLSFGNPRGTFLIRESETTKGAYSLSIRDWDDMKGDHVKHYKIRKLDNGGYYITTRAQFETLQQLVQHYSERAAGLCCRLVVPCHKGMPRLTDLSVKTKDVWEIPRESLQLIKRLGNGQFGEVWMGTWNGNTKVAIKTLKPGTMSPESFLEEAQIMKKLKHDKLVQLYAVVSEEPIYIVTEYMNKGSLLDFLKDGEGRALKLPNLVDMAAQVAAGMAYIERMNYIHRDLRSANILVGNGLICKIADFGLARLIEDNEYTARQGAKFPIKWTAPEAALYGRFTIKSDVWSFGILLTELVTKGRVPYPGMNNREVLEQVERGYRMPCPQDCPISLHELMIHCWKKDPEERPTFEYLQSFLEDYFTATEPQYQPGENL
Chain of lck_human LCK (P06239 whole entry, looked up): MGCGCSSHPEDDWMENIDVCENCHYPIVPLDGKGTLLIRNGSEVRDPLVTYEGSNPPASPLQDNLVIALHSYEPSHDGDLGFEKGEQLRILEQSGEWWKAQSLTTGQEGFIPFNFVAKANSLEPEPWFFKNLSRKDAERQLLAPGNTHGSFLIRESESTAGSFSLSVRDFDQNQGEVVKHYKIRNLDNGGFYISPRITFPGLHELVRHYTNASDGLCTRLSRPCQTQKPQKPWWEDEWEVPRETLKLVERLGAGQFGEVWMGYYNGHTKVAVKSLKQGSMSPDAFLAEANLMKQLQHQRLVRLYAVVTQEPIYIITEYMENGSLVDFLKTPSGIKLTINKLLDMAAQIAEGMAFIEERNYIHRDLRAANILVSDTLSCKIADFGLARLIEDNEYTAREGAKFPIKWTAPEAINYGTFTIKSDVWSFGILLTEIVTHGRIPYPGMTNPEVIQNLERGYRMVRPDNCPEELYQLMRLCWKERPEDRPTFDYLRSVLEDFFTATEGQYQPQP
Chain of hck_human HCK (P08631 whole entry, looked up): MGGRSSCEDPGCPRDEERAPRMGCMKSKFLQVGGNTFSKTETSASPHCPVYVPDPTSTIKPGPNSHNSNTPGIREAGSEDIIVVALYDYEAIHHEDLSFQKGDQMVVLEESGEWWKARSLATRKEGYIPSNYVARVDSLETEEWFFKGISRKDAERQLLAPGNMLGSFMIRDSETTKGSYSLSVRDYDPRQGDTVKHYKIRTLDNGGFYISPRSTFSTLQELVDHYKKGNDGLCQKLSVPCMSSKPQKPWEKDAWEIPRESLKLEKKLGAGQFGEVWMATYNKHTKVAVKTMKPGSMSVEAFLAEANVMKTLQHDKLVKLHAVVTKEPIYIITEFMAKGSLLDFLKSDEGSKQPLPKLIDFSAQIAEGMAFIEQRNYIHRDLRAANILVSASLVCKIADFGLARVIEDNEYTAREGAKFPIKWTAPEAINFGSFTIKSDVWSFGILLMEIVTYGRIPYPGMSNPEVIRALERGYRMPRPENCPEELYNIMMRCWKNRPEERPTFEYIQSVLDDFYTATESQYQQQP

Genome polyprotein (Hepatitis C virus genotype 1b (isolate Con1) (HCV)), Q9WMX2 P2322A;P2325A;P2326A
disrupting interaction: all assays above
